From WO2019077951A1 (dated 2019)

Target: T1, full-length MUC1 (amino acid sequence of SEQ ID NO: 27) (human (human cervical cancer cell line …, UniProt P15941 24-1255, limits assumed))
T1 construct: Full-length protein from cell extract on a Western blot membrane
Assay: Western blotting

T1 sequence (P15941 other isoform, or with tags, fused parts or gaps limits assumed): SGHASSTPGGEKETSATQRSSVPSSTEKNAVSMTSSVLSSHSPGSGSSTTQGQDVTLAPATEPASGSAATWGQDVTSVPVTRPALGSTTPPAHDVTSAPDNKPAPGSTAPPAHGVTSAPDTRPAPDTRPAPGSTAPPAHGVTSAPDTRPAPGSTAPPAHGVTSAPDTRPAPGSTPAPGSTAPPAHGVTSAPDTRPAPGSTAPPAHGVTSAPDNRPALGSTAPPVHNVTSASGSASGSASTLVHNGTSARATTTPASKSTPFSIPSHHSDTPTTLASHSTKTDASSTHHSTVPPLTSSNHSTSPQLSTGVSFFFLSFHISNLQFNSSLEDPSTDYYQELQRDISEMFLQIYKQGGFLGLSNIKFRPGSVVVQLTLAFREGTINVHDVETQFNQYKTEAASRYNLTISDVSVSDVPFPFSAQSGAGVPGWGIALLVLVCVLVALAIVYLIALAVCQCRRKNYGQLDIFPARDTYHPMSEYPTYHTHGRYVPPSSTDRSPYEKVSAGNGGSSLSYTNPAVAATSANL

B1: anti-MUC1 monoclonal antibody (antibody, V domains shown)
VH: EVKLEESGGGLVQPGGSMKLSCVASGFSFSDYWMNWVRQSPDKGLEWISDIRLKSYNYATHYAESVKGRFTISRDDSKSGVYLQMNNLRAEDTGLYYCTFGNSFAYWGQGTLVTVSA
VL: QAVVTQESALTTSPGETVTLTCRSSTGAVTTSNYANWVQEKPDHLFTGLIGGTNNRAPGVPARFSGSLIGDKAALTITGAQTEDEAIYFCALWYSNHWVFGGGTKLTVLG
notes: also called MUC1 antibody
  binding result: binds
